From patent US20180155407A1 (Sanofi, published 2018)
Numbered stars: 1 amine (or outer) side, 2 acyl side, 3 side chain; on linkers, the order of the positions; unused ones are H or OH. Square brackets hold non-standard residues; d marks the D form. Side chains are listed from the residue outwards. Ends that are not written are not given here. * marks the point of attachment. γGlu = O=C(O)[C@H](CCC(=O)[*:2])N[*:1]; Palmitoyl = CCCCCCCCCCCCCCCC(=O)*; gAAA = not defined here; AEEA = NCCOCCOCC(=O)O; Aib = CC(C)(N)C(=O)O

B1: SEQ ID NO: 7 (peptide)
peptide: H[Aib]QGTFTSDLSKLK([γGlu-γGlu-Palmitoyl])EKQRQ[Aib]EFIEWLKA[dA]GPPS[Aib]KPPPK-NH2
modifications: N-terminus assumed
SMILES: CCCCCCCCCCCCCCCC(=O)N[C@@H](CCC(=O)N[C@@H](CCC(=O)NCCCC[C@H](NC(=O)[C@H](CC(C)C)NC(=O)[C@H](CCCCN)NC(=O)[C@H](CO)NC(=O)[C@H](CC(C)C)NC(=O)[C@H](CC(=O)O)NC(=O)[C@H](CO)NC(=O)[C@@H](NC(=O)[C@H](Cc1ccccc1)NC(=O)[C@@H](NC(=O)CNC(=O)[C@H](CCC(N)=O)NC(=O)C(C)(C)NC(=O)[C@@H](N)Cc1c[nH]cn1)[C@@H](C)O)[C@@H](C)O)C(=O)N[C@@H](CCC(=O)O)C(=O)N[C@@H](CCCCN)C(=O)N[C@@H](CCC(N)=O)C(=O)N[C@@H](CCCNC(=N)N)C(=O)N[C@@H](CCC(N)=O)C(=O)NC(C)(C)C(=O)N[C@@H](CCC(=O)O)C(=O)N[C@@H](Cc1ccccc1)C(=O)N[C@H](C(=O)N[C@@H](CCC(=O)O)C(=O)N[C@@H](Cc1c[nH]c2ccccc12)C(=O)N[C@@H](CC(C)C)C(=O)N[C@@H](CCCCN)C(=O)N[C@@H](C)C(=O)N[C@H](C)C(=O)NCC(=O)N1CCC[C@H]1C(=O)N1CCC[C@H]1C(=O)N[C@@H](CO)C(=O)NC(C)(C)C(=O)N[C@@H](CCCCN)C(=O)N1CCC[C@H]1C(=O)N1CCC[C@H]1C(=O)N1CCC[C@H]1C(=O)N[C@@H](CCCCN)C(N)=O)[C@@H](C)CC)C(=O)O)C(=O)O
B2: SEQ ID NO: 19 (peptide)
peptide: H[Aib]QGTFTSDLSKLK([γGlu-γGlu-AEEA-Palmitoyl])EEQRQ[Aib]EFIEWLKA[dA]GHPS[Aib]KPPPK-NH2
modifications: N-terminus assumed
SMILES: CCCCCCCCCCCCCCCC(=O)NCCOCCOCC(=O)N[C@@H](CCC(=O)N[C@@H](CCC(=O)NCCCC[C@H](NC(=O)[C@H](CC(C)C)NC(=O)[C@H](CCCCN)NC(=O)[C@H](CO)NC(=O)[C@H](CC(C)C)NC(=O)[C@H](CC(=O)O)NC(=O)[C@H](CO)NC(=O)[C@@H](NC(=O)[C@H](Cc1ccccc1)NC(=O)[C@@H](NC(=O)CNC(=O)[C@H](CCC(N)=O)NC(=O)C(C)(C)NC(=O)[C@@H](N)Cc1c[nH]cn1)[C@@H](C)O)[C@@H](C)O)C(=O)N[C@@H](CCC(=O)O)C(=O)N[C@@H](CCC(=O)O)C(=O)N[C@@H](CCC(N)=O)C(=O)N[C@@H](CCCNC(=N)N)C(=O)N[C@@H](CCC(N)=O)C(=O)NC(C)(C)C(=O)N[C@@H](CCC(=O)O)C(=O)N[C@@H](Cc1ccccc1)C(=O)N[C@H](C(=O)N[C@@H](CCC(=O)O)C(=O)N[C@@H](Cc1c[nH]c2ccccc12)C(=O)N[C@@H](CC(C)C)C(=O)N[C@@H](CCCCN)C(=O)N[C@@H](C)C(=O)N[C@H](C)C(=O)NCC(=O)N[C@@H](Cc1c[nH]cn1)C(=O)N1CCC[C@H]1C(=O)N[C@@H](CO)C(=O)NC(C)(C)C(=O)N[C@@H](CCCCN)C(=O)N1CCC[C@H]1C(=O)N1CCC[C@H]1C(=O)N1CCC[C@H]1C(=O)N[C@@H](CCCCN)C(N)=O)[C@@H](C)CC)C(=O)O)C(=O)O

How the values were obtained:
Experiment in all cases: cell-based or functional assay
[1] = target: human GLP-1 receptor (human) (UniProt P43220)
[2] = target: human glucagon receptor (human) (UniProt P47871)
[3] = target: human GLP-1 receptor (human, UniProt P43220 24-463)
[4] = target: human glucagon receptor (human, UniProt P47871 26-477)
[5] = target: T1, human GIP receptor (human, UniProt P48546 22-466)
T1 sequence (looked up): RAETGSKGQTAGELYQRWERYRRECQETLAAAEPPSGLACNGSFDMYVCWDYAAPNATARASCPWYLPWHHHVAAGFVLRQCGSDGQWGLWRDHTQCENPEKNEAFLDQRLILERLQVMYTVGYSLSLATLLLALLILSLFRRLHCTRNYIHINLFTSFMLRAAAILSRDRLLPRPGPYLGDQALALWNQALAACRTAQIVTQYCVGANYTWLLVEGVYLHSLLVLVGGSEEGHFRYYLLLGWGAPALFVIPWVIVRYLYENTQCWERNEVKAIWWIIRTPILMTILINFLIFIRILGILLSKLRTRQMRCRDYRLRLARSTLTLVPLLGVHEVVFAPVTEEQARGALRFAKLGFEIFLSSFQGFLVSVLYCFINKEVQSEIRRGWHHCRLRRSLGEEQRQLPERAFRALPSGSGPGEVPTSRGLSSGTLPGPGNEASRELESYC

Sequence of human glucagon receptor (P47871 26-477): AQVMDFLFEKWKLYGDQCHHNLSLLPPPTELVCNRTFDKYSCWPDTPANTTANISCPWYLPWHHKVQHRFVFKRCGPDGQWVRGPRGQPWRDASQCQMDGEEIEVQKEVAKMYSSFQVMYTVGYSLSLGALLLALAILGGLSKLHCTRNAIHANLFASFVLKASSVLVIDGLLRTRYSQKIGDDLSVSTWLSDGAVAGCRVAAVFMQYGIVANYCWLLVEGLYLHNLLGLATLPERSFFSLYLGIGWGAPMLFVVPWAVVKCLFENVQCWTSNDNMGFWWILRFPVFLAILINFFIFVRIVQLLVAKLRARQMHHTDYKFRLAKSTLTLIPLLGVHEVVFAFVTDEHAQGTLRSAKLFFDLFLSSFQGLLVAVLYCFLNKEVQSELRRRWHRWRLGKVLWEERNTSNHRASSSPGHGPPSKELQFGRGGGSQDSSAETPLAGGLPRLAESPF
Sequence of human GLP-1 receptor (human) (P43220 24-463): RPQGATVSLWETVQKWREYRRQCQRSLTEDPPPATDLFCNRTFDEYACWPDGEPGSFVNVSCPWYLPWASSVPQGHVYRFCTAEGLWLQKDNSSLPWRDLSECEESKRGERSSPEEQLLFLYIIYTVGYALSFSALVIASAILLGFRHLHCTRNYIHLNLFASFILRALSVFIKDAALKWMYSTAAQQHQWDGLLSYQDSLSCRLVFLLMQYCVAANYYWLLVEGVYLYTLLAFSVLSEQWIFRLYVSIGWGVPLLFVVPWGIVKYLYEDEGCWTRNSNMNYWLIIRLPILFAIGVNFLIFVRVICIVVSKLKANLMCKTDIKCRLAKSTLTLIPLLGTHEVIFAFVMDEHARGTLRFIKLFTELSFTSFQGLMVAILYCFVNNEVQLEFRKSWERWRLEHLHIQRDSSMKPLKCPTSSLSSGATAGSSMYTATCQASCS
Sequence of human glucagon receptor (human) (P47871 26-477): as the sequence (P47871 26-477) above

Row | Molecule | EC50 hGLP-1R [pM] (cAMP formation) [1] | EC50 hGlucagon R [pM] (cAMP formation) [2] | EC50 hGLP-1R (cAMP formation) [3] [pM] | EC50 hGlucagon R (cAMP formation) [4] [pM] | EC50 hGIP R (cAMP formation) [5] [pM]
1 | exendin-4 (peptide) | 0.4 | > 1e+07 |  |  | 
2 | B1 |  |  | 4 | 21.8 | 14.2
3 | H[Aib]QGTFTSDLSKLK([γGlu-AEEA-gAAA-Palmitoyl])EKQRQ[Aib]EFIEWLKAGGHPS[Aib]KPPPK-NH2 (reading uncertain) [SEQ ID NO: 20] |  |  | 2.4 | 44 | 12.7
4 | B2 |  |  | 1.9 | 52.2 | 7.9
5 | H[Aib]QGTFTSDLSKLK([γGlu-AEEA-gAAA-Palmitoyl])EKQRQ[Aib]EFIEWLKA[dA]GHPS[Aib]KPPPK-NH2 (reading uncertain) [SEQ ID NO: 21] |  |  | 4.2 | 69.9 | 24.6
6 | H[Aib]QGTFTSDLSKLK([γGlu-AEEA-gAAA-Palmitoyl])EEQRQ[Aib]EFIEWLKAGGHPS[Aib]KPPPK-NH2 (reading uncertain) [SEQ ID NO: 22] |  |  | 2.1 | 108 | 6
7 | H[Aib]QGTFTSDLSKLK([γGlu-AEEA-gAAA-Palmitoyl])EEQRQ[Aib]EFIEWLKA[dA]GHPS[Aib]KPPPK-NH2 (reading uncertain) [SEQ ID NO: 23] |  |  | 1 | 64.3 | 2
